The chains are these.
B1: minF1; the commonest letter at each place (parent)
chain: GAGACCGCAACTGAAAAGTTGTTATCAGAAATGGATGGGTTGAATTTCTGCACGTAGAAGCAAAAGGC

Variants of B1 are the subject of this data set. Nature of the data set: fraction ligated after 30 min (ligated reads / total reads); higher = more ligase activity. The following applies: with F1*subA RNA substrate (template-directed ligation), 42 °C. Put shortly: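 RNAs for minimized ligase ribozyme variants were transcribed with T7 from PCR-amplified oligo-pool templates and purified on gels. Ligated and unligated species were resolved on gels, converted to cDNA with barcoded primers, and read on a MiSeq with core bases filtered at quality ≥30. Fraction ligated per variant is the ratio of ligated reads to total reads.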
Turning to GAGACCGCAACTGAAAAGTTGTTATCAGTAATTGATGGGTTGAATTTCTGCACGTAGAAGCAAAAGGC, the fraction ligated was 0.453.

Regarding GAGACCGCAACTGAAAAGTTGTTATCAGTAATAGATGGGTTGAATTTCTGCACGTAGAAGCAAAAGGC, the fraction ligated was 0.783.

Take GAGACCGCAACTGAAAAGTTGTTATCAGTAATCGATGGGTTGAATTTCTGCACGTAGAAGCAAAAGGC: the fraction ligated was determined as 0.721. Turning to GAGACCGCAACTGAAAAGTTGTTATCAGGAATGGACGGGTTGAATTTCTGCACGTAGAAGCAAAAGGC, the fraction ligated came to 0.0189. The same measure for GAGACCGCAACTGAAAAGTTGTTATCAGGAATGGAGGGGTTGAATTTCTGCACGTAGAAGCAAAAGGC: 0.0397. The same measure for GAGACCGCAACTGAAAAGTTGTTATCAGGAATGGAAGGGTTGAATTTCTGCACGTAGAAGCAAAAGGC: 0.0285. The same measure for GAGACCGCAACTGAAAAGTTGTTATCAGGAATGAATGGGTTGAATTTCTGCACGTAGAAGCAAAAGGC: 0.0509; for GAGACCGCAACTGAAAAGTTGTTATCAGGAATGTATGGGTTGAATTTCTGCACGTAGAAGCAAAAGGC: 0.00809; for GAGACCGCAACTGAAAAGTTGTTATCAGGAATGCATGGGTTGAATTTCTGCACGTAGAAGCAAAAGGC: 0.00249. As for GAGACCGCAACTGAAAAGTTGTTATCAGCAATAGATGGGTTGAATTTCTGCACGTAGAAGCAAAAGGC, the fraction ligated worked out at 0.784.

GAGACCGCAACTGAAAAGTTGTTATCAGCAATTGATGGGTTGAATTTCTGCACGTAGAAGCAAAAGGC: the fraction ligated amounted to 0.526. In the case of GAGACCGCAACTGAAAAGTTGTTATCAGCAATCGATGGGTTGAATTTCTGCACGTAGAAGCAAAAGGC, the fraction ligated worked out at 0.743.

With GAGACCGCAACTGAAAAGTTGTTATCAGGAATGGGTGGGTTGAATTTCTGCACGTAGAAGCAAAAGGC, the fraction ligated stood at 0.204.

On to GAGACCGCAACTGAAAAGTTGTTATCAGGAATGGCTGGGTTGAATTTCTGCACGTAGAAGCAAAAGGC, for which the fraction ligated turned out to be 0.0139. On to GAGACCGCAACTGAAAAGTTGTTATCAGGAATGGTTGGGTTGAATTTCTGCACGTAGAAGCAAAAGGC, for which the fraction ligated stood at 0.023. Take GAGACCGCAACTGAAAAGTTGTTATCAGTCATGGATGGGTTGAATTTCTGCACGTAGAAGCAAAAGGC: the fraction ligated is 0.806. The same measure for GAGACCGCAACTGAAAAGTTGTTATCAGTTATGGATGGGTTGAATTTCTGCACGTAGAAGCAAAAGGC: 0.789; for GAGACCGCAACTGAAAAGTTGTTATCAGTGATGGATGGGTTGAATTTCTGCACGTAGAAGCAAAAGGC: 0.821; for GAGACCGCAACTGAAAAGTTGTTATCAGCAATGGACGGGTTGAATTTCTGCACGTAGAAGCAAAAGGC: 0.0172. Take GAGACCGCAACTGAAAAGTTGTTATCAGCAATGGAGGGGTTGAATTTCTGCACGTAGAAGCAAAAGGC: the fraction ligated was determined as 0.0261. The same measure for GAGACCGCAACTGAAAAGTTGTTATCAGCAATGGAAGGGTTGAATTTCTGCACGTAGAAGCAAAAGGC: 0.0288. The same measure for GAGACCGCAACTGAAAAGTTGTTATCAGGAATCGATGGGTTGAATTTCTGCACGTAGAAGCAAAAGGC: 0.709; for GAGACCGCAACTGAAAAGTTGTTATCAGGAATTGATGGGTTGAATTTCTGCACGTAGAAGCAAAAGGC: 0.516; for GAGACCGCAACTGAAAAGTTGTTATCAGGAATAGATGGGTTGAATTTCTGCACGTAGAAGCAAAAGGC: 0.8. The same measure for GAGACCGCAACTGAAAAGTTGTTATCAGGAATGGATGGGTTGAATTTCTGCACGTAGAAGCAAAAGGC: 0.827; for GAGACCGCAACTGAAAAGTTGTTATCAGTAATGGATGGGTTGAATTTCTGCACGTAGAAGCAAAAGGC: 0.815.

For GAGACCGCAACTGAAAAGTTGTTATCAGTAATGGATGGGTTGACTTTCTGCACGTAGAAGCAAAAGGC, the fraction ligated was 0.59.

Regarding GAGACCGCAACTGAAAAGTTGTTATCAGTAATGGATGGGTTGAGTTTCTGCACGTAGAAGCAAAAGGC, the fraction ligated was found to be 0.734. The same measure for GAGACCGCAACTGAAAAGTTGTTATCAGTAATGGATGGGTTGATTTTCTGCACGTAGAAGCAAAAGGC: 0.741. The same measure for GAGACCGCAACTGAAAAGTTGTTATCAGCAATGGATGGGTTCAATTTCTGCACGTAGAAGCAAAAGGC: 0.00616; for GAGACCGCAACTGAAAAGTTGTTATCAGCAATGGATGGGTTTAATTTCTGCACGTAGAAGCAAAAGGC: 0.0826. The same measure for GAGACCGCAACTGAAAAGTTGTTATCAGCAATGGATGGGTTAAATTTCTGCACGTAGAAGCAAAAGGC: 0.283; for GAGACCGCAACTGAAAAGTTGTTATCAGTAATGGATCGGTTGAATTTCTGCACGTAGAAGCAAAAGGC: 0.00775; for GAGACCGCAACTGAAAAGTTGTTATCAGTAATGGATTGGTTGAATTTCTGCACGTAGAAGCAAAAGGC: 0.027.

As for GAGACCGCAACTGAAAAGTTGTTATCAGTAATGGATAGGTTGAATTTCTGCACGTAGAAGCAAAAGGC, the fraction ligated stood at 0.00694.

Turning to GAGACCGCAACTGAAAAGTTGTTATCAGTAATGGATGGGTTGCATTTCTGCACGTAGAAGCAAAAGGC, the fraction ligated amounted to 0.065. Then GAGACCGCAACTGAAAAGTTGTTATCAGTAATGGATGGGTTGTATTTCTGCACGTAGAAGCAAAAGGC, with 0.0859; and GAGACCGCAACTGAAAAGTTGTTATCAGTAATGGATGGGTTGGATTTCTGCACGTAGAAGCAAAAGGC, with 0.0507.

GAGACCGCAACTGAAAAGTTGTTATCAGTAATGGGTGGGTTGAATTTCTGCACGTAGAAGCAAAAGGC: the fraction ligated amounted to 0.153.

The values are drawn from the supplement of paper PMC6755084.
